Paper PMC9328131
Where two headings read alike, the source gives them in different places.

T1: Ecm16 (Streptomyces lasalocidi, UniProt Q0X0A9 1-792)
T1 sequence: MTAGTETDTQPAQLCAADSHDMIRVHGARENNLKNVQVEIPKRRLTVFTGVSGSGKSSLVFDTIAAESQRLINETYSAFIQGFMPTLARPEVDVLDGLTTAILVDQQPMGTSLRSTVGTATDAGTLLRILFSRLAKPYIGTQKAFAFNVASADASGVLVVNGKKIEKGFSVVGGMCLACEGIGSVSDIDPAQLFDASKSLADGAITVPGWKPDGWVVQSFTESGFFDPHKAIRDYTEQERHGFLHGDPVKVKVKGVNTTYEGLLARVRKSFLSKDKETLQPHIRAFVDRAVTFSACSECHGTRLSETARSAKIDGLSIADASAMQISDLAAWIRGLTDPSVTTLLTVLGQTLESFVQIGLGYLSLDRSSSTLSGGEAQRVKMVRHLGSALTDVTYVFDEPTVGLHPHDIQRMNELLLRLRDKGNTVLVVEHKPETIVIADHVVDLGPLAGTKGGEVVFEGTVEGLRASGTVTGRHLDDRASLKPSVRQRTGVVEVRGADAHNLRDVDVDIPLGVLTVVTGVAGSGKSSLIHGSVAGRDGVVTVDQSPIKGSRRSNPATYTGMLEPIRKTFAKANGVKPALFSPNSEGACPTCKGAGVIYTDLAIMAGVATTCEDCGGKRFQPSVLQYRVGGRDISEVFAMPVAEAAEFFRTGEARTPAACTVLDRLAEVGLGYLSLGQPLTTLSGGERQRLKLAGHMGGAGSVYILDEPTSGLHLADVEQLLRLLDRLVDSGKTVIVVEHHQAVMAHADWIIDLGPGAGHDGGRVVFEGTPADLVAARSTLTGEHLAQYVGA


Experiments:
Assay in all cases: EMSA
[1] = biological target: T1, Ecm16
[2] = biological target: T1, Ecm16; remark: listed apart in the source
[3] = biological target: T1, Ecm16; remark: listed apart in the source

Binder	Kd [1] [nM]	Kd [2] [nM]	Kd [3] [nM]
32-mer dsDNA (dsDNA) DNA 1: AGTGATCAGTGGTTACGTAACCACTGATCACT DNA 2: AGTGATCAGTGGTTACGTAACCACTGATCACT	20.6	34.8	–
AGTGATCAGTGGTTACGTAACCACTGATCACT (ssDNA) [32-mer ssDNA]	–	–	39.6
